In article PMC10397247:

Key:
Test in all cases: two-hybrid library CCNG1;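 note: natural log of median RNA to DNA barcode read ratio; higher means stronger binding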
[1] = molecular target: T1, 4H906-bN
T1 chain: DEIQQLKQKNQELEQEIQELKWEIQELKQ

[2] = molecular target: T2, P4mSN
T2 chain: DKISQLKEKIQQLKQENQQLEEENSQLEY

[3] = molecular target: T3, 4H3961-bA
T3 chain: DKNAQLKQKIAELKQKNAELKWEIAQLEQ

[4] = molecular target: T4, 4H363-bA
T4 chain: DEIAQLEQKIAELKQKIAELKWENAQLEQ

[5] = molecular target: T5, 4H3907-bA
T5 chain: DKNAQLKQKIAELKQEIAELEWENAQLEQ

[6] = molecular target: T6, 4H470-bA
T6 chain: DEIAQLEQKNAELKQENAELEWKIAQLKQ

[7] = molecular target: T7, 4H850-bA
T7 chain: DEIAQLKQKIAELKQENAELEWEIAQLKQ

[8] = molecular target: T8, 4H1804-bA
T8 chain: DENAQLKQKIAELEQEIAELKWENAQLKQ

[9] = molecular target: T9, 4H584-bA
T9 chain: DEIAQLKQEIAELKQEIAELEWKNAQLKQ

[10] = molecular target: T10, 4H3172-bA
T10 chain: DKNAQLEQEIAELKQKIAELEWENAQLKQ

[11] = molecular target: T11, 4H1985-bA
T11 chain: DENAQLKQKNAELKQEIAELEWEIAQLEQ

[12] = molecular target: T12, 4H3974-bA
T12 chain: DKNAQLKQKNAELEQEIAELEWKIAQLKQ

[13] = molecular target: T13, 4H3631-bA
T13 chain: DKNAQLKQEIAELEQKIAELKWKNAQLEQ

[14] = molecular target: T14, 4H570-bA
T14 chain: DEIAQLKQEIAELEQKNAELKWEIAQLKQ

[15] = molecular target: T15, 4H3414-bA
T15 chain: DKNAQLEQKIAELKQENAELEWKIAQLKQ

[16] = molecular target: T16, 4H619-bA
T16 chain: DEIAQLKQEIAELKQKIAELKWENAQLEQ

[17] = molecular target: T17, 4H3817-bA
T17 chain: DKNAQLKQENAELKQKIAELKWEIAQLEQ

[18] = molecular target: T18, 4H3638-bA
T18 chain: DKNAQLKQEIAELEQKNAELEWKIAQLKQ

[19] = molecular target: T19, 4H3129-bA
T19 chain: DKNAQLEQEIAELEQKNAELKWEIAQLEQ

[20] = molecular target: T20, 4H906-bA
T20 chain: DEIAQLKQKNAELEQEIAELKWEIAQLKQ

[21] = molecular target: T21, 4H3298-bA
T21 chain: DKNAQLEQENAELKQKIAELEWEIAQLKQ

[22] = molecular target: T22, 4H1899-bA
T22 chain: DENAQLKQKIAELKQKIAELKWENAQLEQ

[23] = molecular target: T23, 4H3858-bA
T23 chain: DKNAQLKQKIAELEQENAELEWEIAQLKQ

[24] = molecular target: T24, O14-bA
T24 chain: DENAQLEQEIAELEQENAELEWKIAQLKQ

[25] = molecular target: T25, 4H3497-bA
T25 chain: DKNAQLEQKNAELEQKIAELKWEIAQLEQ

[26] = molecular target: T26, 4H3628-bA
T26 chain: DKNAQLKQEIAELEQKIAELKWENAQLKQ

[27] = molecular target: T27, 4H3277-bA
T27 chain: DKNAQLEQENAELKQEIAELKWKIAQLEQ

[28] = molecular target: T28, 4H3926-bA
T28 chain: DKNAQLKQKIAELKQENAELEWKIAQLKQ

[29] = molecular target: T29, 4H3175-bA
T29 chain: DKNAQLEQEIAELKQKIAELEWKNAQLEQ

[30] = molecular target: T30, 4H626-bA
T30 chain: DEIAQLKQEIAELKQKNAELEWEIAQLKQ

[31] = molecular target: T31, 4H3162-bA
T31 chain: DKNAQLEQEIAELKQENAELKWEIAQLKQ

[32] = molecular target: T32, 4H3462-bA
T32 chain: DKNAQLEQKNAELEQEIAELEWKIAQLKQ

[33] = molecular target: T33, 4H1710-bA
T33 chain: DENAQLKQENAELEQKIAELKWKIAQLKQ

[34] = molecular target: T34, 4H591-bA
T34 chain: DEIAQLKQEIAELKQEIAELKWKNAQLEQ

[35] = molecular target: T35, 4H3613-bA
T35 chain: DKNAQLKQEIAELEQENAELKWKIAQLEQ

[36] = molecular target: T36, 4H3855-bA
T36 chain: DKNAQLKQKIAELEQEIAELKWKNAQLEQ

[37] = molecular target: T37, 4H2585-bH
T37 chain: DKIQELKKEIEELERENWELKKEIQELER

[38] = molecular target: T38, 4H932-bH
T38 chain: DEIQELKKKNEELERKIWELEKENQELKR

[39] = molecular target: T39, 4H2518-bH
T39 chain: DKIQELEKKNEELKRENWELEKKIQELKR

[40] = molecular target: T40, 4H2931-bH
T40 chain: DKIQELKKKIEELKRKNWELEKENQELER

[41] = molecular target: T41, 4H56-bH
T41 chain: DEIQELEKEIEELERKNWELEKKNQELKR

[42] = molecular target: T42, 4H949-bH
T42 chain: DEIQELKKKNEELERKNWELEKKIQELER

[43] = molecular target: T43, 4H3381-bH
T43 chain: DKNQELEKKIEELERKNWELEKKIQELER

[44] = molecular target: T44, 4H730-bH
T44 chain: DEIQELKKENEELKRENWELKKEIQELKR

[45] = molecular target: T45, 4H2859-bH
T45 chain: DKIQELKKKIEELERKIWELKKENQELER

[46] = molecular target: T46, 4H3297-bH
T46 chain: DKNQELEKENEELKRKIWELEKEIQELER

[47] = molecular target: T47, 4H2444-bH
T47 chain: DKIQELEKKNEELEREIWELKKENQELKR

[48] = molecular target: T48, 4H796-bH
T48 chain: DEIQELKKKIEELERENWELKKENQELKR

[49] = molecular target: T49, 4H2760-bH
T49 chain: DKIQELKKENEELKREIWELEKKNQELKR

[50] = molecular target: T50, 4H349-bH
T50 chain: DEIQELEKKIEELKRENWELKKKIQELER

[51] = molecular target: T51, 4H264-bH
T51 chain: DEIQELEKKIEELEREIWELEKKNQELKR

[52] = molecular target: T52, 4H3364-bH
T52 chain: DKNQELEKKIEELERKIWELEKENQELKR

[53] = molecular target: T53, 4H3041-bH
T53 chain: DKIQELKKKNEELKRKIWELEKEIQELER

[54] = molecular target: T54, P7mSN
T54 chain: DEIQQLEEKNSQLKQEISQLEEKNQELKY

[55] = molecular target: T55, P6mSN
T55 chain: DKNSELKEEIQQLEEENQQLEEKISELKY

[56] = molecular target: T56, P5mSN
T56 chain: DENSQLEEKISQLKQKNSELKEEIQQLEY

[57] = molecular target: T57, P8mSN
T57 chain: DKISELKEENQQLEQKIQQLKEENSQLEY

[58] = molecular target: T58, P9mSN
T58 chain: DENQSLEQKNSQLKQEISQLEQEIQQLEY

B1: 4H906-bN (peptide)
chain: DEIQQLKQKNQELEQEIQELKWEIQELKQ
Binder B1 has an interaction score [1] of -0.198 and an interaction score [2] of -1.42.

B2: 4H363-bA (peptide)
chain: DEIAQLEQKIAELKQKIAELKWENAQLEQ
B2 showed an interaction score [3] of 0.154, an interaction score [4] of 1.08 and an interaction score [5] of 1.32. It also gave an interaction score [6] of -2.31.

B3: 4H1804-bA (peptide)
chain: DENAQLKQKIAELEQEIAELKWENAQLKQ
Binder B3 has an interaction score [7] of -0.531, an interaction score [8] of 0.9 and an interaction score [9] of -0.489. For the same binder, the interaction score [10] was -0.016, the interaction score [11] was -0.729 and the interaction score [12] was -0.32. For the same binder, the interaction score [13] was 0.394, the interaction score [14] was -0.765 and the interaction score [15] was -0.0712. The interaction score [16] was -1.65, the interaction score [17] was -0.0173 and the interaction score [18] was -0.376. It also gave an interaction score [19] of 0.386 and an interaction score [20] of -0.55.

B4: 4H1710-bA (peptide)
chain: DENAQLKQENAELEQKIAELKWKIAQLKQ
B4 gave an interaction score [7] of 0.0118, an interaction score [21] of 0.819 and an interaction score [8] of -0.669. It also gave an interaction score [9] of -0.0679, an interaction score [22] of -0.115 and an interaction score [23] of 0.318. It also gave an interaction score [10] of -0.97, an interaction score [24] of -1.06 and an interaction score [11] of 2.11. For the same binder, the interaction score [12] was 1.34, the interaction score [25] was 1.01 and the interaction score [26] was 0.848. It also gave an interaction score [27] of -0.282, an interaction score [28] of 0.352 and an interaction score [13] of 1.48. For the same binder, the interaction score [14] was -1.24, the interaction score [29] was -0.421 and the interaction score [15] was -0.541. It also gave an interaction score [30] of -0.621, an interaction score [16] of 0.519 and an interaction score [31] of -0.713. The interaction score [32] was 1.04, the interaction score [33] was 0.102 and the interaction score [17] was 1.53. For the same binder, the interaction score [18] was 0.729, the interaction score [19] was 0.367 and the interaction score [20] was 0.904. It also gave an interaction score [34] of -1.11, an interaction score [35] of 0.262 and an interaction score [36] of 0.515.

B5: 4H2444-bH (peptide)
chain: DKIQELEKKNEELEREIWELKKENQELKR
Binder B5 has an interaction score [37] of 0.868, an interaction score [38] of 0.176 and an interaction score [39] of 0.571. The interaction score [40] was 0.0488, the interaction score [41] was -0.284 and the interaction score [42] was -0.478. It also gave an interaction score [43] of 0.313, an interaction score [44] of -0.91 and an interaction score [45] of 0.771. The interaction score [46] was 0.285, the interaction score [47] was 1.48 and the interaction score [48] was 0.0566. It also gave an interaction score [49] of 0.592, an interaction score [50] of -0.694 and an interaction score [51] of -2.12. The interaction score [52] was 0.375 and the interaction score [53] was -0.0348.

B6: P4mSN (peptide)
chain: DKISQLKEKIQQLKQENQQLEEENSQLEY
With B6 the interaction score [54] was -1.04, the interaction score [55] was -0.838 and the interaction score [56] was -1.42. The interaction score [2] was -1.76, the interaction score [57] was -1.53 and the interaction score [58] was -1.07.
